# Experimental data reported in US7943340B2, “Fungal dipeptidyl peptidase IV (DPPIV) enzyme for reagent use” (priority 2003, dated 2011).
# Entries after “also recorded” stand apart in the source; their conditions may differ.
# How the values were obtained:
# [1] = Aminopeptidase activity assay with fluorogenic aminoacyl-AMC substrates; format: biochemical
# Description: (§1) Aminopeptidase activity was determined using different fluorogenic aminoacyl-4-methylcoumaryl-7-amide derivatives of peptides and the internally quenched fluorogenic substrate Lys(Abz)-Pro-Pro-pNA for specific determination of aminopeptidase P activity. Stockel et al, Adv Exp. Med. Biol. 421:31-35 (1997). All substrates were from Bachem (Bubendorf, Switzerland). Substrate stock solutions were prepared at 0.1 M according to the recommendations of the manufacturer and stored at −20° C. The reaction mixture contained a concentration of 5 mM substrate and enzyme preparation (between 56 and 2,662 ng per assay depending on the cleavage activity of each enzyme for the substrates) in 25 μl of 50 mM Tris-HCl buffer adjusted at the optimal pH for each LAP (between 7 and 8). After incubation at 37° C. for 60 min, the reaction was terminated by adding 5 μl of glacial acetic acid and the reaction mixture was diluted with 3.5 ml of water. The released 7-amino-4-methylcoumarin (AMC) was measured using a spectrofluorophotometer (Perkin Elmer LS-5 fluorometer, Zurich, Switzerland) at an excitation wavelength of 370 nm and an emission wavelength of 460 nm. A standard curve made with synthetic AMC was used to assess the released AMC. The released diprolyl-p-nitroanilide was measured at an excitation wavelength of 310 nm and an emission wavelength of 410 nm. The LA activities were expressed in mnoles of released AMC or pNA/min/μg protein.
# Table 15 details the hydrolytic activity of different LAPs toward various aminoacyl-MCA comparison (%) to Leu-MCA used as a standard.
# [2] = Aminopeptidase P activity assay; format: biochemical; conditions: substrate Lys(Abz)-Pro-Pro-pNA, 5 mM, 37° C., 60 min
# Description: as §1
# [3] = system: gliadin 14 mer PQPQLPYPQPQLPY; format: biochemical, wheat; conditions: 4 h, 37° C., 1 mM CoCl2, pH7.2
# gliadin 33 mer = assay: Digestion of gliadin 33 mer (RP-HPLC, ESI-MS); format: biochemical, wheat; conditions: within 4 h
# Ala-proNPY = assay: Digestion of Ala-proNPY with ruLAP2; format: biochemical; conditions: overnight 37° C.
# Description: The digested material was isolated by RP-HPLC and characterized by ESI-MS. […] The same result is obtained at an 1:[…] ratio. Digestion halts when the enzyme reaches a Xaa-Pro-motif, which in case of proNPY is Tyr-Pro. Conditions of incubation were the same as for Gly-Ser-proNPY.
# denatured casein = assay: Digestion of full-length polypeptide chain (denatured casein); format: biochemical; conditions: partially purified, in the presence of a trypsin-like endoprotease from the P. pastoris expression system
molecule,measurement,setting,value
"ruLAP2: T. rubrum leucine aminopeptidase, 495 amino acid residues (SEQ ID NO: 3) (protein, listed as Trichophyton rubrum) MKSQLLSLAVAVTTISQGVVGQEPFGWPFKPMVTQDDLQNKIKLKDIMAGVEKLQSFSDAHPEKNRVFGGNGHKDTVEWIYNEIKATGYYDVKKQEQVHLWSHAEAALNANGKDLKASAMSYSPPASKIMAELVVAKNNGCNATDYPANTQGKIVLVERGVCSFGEKSAQAGDAKAAGAIVYNNVPGSLAGTLGGLDKRHVPTAGLSQEDGKNLATLVASGKIDVTMNVISLFENRTTWNVIAETKGGDHNNVIMLGAHSDSVDAGPGINDNGSGSIGIMTVAKALTNFKLNNAVRFAWWTAEEFGLLGSTFYVNSLDDRELHKVKLYLNFDMIGSPNFANQIYDGDGSAYNMTGPAGSAEIEYLFEKFFDDQGIPHQPTAFTGRSDYSAFIKRNVPAGGLFTGAEVVKTPEQVKLFGGEAGVAYDKNYHRKGDTVANINKGAIFLNTRAIAYAIAEYARSLKGFPTRPKTGKRDVNPQYSKMPGGGCGHHTVFM",hydrolysis of Leu-AMC,[1],efficiently hydrolyzed
same,hydrolytic activity toward Ala-AMC in comparison (%) to Leu-MCA,"[1]; substrate Ala-AMC, 5 mM, 37° C., 60 min",33.3%
same,hydrolytic activity toward Arg-AMC in comparison (%) to Leu-MCA,"[1]; substrate Arg-AMC, 5 mM, 37° C., 60 min",1.9%
same,hydrolytic activity toward Asn-AMC in comparison (%) to Leu-MCA,"[1]; substrate Asn-AMC, 5 mM, 37° C., 60 min",114.6%
same,hydrolytic activity toward Asp-AMC in comparison (%) to Leu-MCA,"[1]; substrate Asp-AMC, 5 mM, 37° C., 60 min",3.8%
same,hydrolytic activity toward Cys-AMC in comparison (%) to Leu-MCA,"[1]; substrate Cys-AMC, 5 mM, 37° C., 60 min",14.9%
same,hydrolytic activity toward Gln-AMC in comparison (%) to Leu-MCA,"[1]; substrate Gln-AMC, 5 mM, 37° C., 60 min",49.9%
same,hydrolytic activity toward Glu-AMC in comparison (%) to Leu-MCA,"[1]; substrate Glu-AMC, 5 mM, 37° C., 60 min",3.7%
same,hydrolytic activity toward Gly-AMC in comparison (%) to Leu-MCA,"[1]; substrate Gly-AMC, 5 mM, 37° C., 60 min",3.3%
same,hydrolytic activity toward Gly-Pro-AMC in comparison (%) to Leu-MCA,"[1]; substrate Gly-Pro-AMC, 5 mM, 37° C., 60 min",7.2%
same,hydrolytic activity toward His-AMC in comparison (%) to Leu-MCA,"[1]; substrate His-AMC, 5 mM, 37° C., 60 min",0.6%
same,hydrolytic activity toward Hyp-AMC in comparison (%) to Leu-MCA,"[1]; substrate Hyp-AMC, 5 mM, 37° C., 60 min",14.2%
same,hydrolytic activity toward Ile-AMC in comparison (%) to Leu-MCA,"[1]; substrate Ile-AMC, 5 mM, 37° C., 60 min",6.4%
same,hydrolytic activity toward Leu-AMC in comparison (%) to Leu-MCA used as a standard,"[1]; substrate Leu-AMC (standard), 5 mM, 37° C., 60 min",100.0%
same,hydrolytic activity toward Lys-AMC in comparison (%) to Leu-MCA,"[1]; substrate Lys-AMC, 5 mM, 37° C., 60 min",4.6%
same,hydrolytic activity toward Met-AMC in comparison (%) to Leu-MCA,"[1]; substrate Met-AMC, 5 mM, 37° C., 60 min",119.7%
same,hydrolytic activity toward Phe-AMC in comparison (%) to Leu-MCA,"[1]; substrate Phe-AMC, 5 mM, 37° C., 60 min",17.1%
same,hydrolytic activity toward Pro-AMC in comparison (%) to Leu-MCA,"[1]; substrate Pro-AMC, 5 mM, 37° C., 60 min",21.4%
same,hydrolytic activity toward Pyr-AMC in comparison (%) to Leu-MCA,"[1]; substrate Pyr-AMC, 5 mM, 37° C., 60 min",0.0%
same,hydrolytic activity toward Ser-AMC in comparison (%) to Leu-MCA,"[1]; substrate Ser-AMC, 5 mM, 37° C., 60 min",26.1%
same,hydrolytic activity toward Thr-AMC in comparison (%) to Leu-MCA,"[1]; substrate Thr-AMC, 5 mM, 37° C., 60 min",0.9%
same,hydrolytic activity toward Val-AMC in comparison (%) to Leu-MCA,"[1]; substrate Val-AMC, 5 mM, 37° C., 60 min",4.8%
same,hydrolytic activity toward Lys(Abz) Pro-PropNA in comparison (%) to Leu-MCA,[2],0.0%
same,digestion of the 14 mer,[3],not digested; also recorded: results only in the cleavage of the N-terminal Proline
same,partial degradation of the 33 mer,gliadin 33 mer,less than 50%
same,removal of N-terminal alanine from Ala-proNPY,Ala-proNPY,almost totally removed
same,digestion of denatured casein,denatured casein,"sequentially digest a full-length polypeptide chain, such as denatured casein"
